Here are results for one molecule from article PMC6083883 (Molecular cell, 2018).

The experiment addresses recombinant biotin-FLAG-tagged human ATM (human, UniProt Q13315 1-3056, biotin). Kind of experiment: pull-down.

Sequence of recombinant biotin-FLAG-tagged human ATM (Q13315 whole entry): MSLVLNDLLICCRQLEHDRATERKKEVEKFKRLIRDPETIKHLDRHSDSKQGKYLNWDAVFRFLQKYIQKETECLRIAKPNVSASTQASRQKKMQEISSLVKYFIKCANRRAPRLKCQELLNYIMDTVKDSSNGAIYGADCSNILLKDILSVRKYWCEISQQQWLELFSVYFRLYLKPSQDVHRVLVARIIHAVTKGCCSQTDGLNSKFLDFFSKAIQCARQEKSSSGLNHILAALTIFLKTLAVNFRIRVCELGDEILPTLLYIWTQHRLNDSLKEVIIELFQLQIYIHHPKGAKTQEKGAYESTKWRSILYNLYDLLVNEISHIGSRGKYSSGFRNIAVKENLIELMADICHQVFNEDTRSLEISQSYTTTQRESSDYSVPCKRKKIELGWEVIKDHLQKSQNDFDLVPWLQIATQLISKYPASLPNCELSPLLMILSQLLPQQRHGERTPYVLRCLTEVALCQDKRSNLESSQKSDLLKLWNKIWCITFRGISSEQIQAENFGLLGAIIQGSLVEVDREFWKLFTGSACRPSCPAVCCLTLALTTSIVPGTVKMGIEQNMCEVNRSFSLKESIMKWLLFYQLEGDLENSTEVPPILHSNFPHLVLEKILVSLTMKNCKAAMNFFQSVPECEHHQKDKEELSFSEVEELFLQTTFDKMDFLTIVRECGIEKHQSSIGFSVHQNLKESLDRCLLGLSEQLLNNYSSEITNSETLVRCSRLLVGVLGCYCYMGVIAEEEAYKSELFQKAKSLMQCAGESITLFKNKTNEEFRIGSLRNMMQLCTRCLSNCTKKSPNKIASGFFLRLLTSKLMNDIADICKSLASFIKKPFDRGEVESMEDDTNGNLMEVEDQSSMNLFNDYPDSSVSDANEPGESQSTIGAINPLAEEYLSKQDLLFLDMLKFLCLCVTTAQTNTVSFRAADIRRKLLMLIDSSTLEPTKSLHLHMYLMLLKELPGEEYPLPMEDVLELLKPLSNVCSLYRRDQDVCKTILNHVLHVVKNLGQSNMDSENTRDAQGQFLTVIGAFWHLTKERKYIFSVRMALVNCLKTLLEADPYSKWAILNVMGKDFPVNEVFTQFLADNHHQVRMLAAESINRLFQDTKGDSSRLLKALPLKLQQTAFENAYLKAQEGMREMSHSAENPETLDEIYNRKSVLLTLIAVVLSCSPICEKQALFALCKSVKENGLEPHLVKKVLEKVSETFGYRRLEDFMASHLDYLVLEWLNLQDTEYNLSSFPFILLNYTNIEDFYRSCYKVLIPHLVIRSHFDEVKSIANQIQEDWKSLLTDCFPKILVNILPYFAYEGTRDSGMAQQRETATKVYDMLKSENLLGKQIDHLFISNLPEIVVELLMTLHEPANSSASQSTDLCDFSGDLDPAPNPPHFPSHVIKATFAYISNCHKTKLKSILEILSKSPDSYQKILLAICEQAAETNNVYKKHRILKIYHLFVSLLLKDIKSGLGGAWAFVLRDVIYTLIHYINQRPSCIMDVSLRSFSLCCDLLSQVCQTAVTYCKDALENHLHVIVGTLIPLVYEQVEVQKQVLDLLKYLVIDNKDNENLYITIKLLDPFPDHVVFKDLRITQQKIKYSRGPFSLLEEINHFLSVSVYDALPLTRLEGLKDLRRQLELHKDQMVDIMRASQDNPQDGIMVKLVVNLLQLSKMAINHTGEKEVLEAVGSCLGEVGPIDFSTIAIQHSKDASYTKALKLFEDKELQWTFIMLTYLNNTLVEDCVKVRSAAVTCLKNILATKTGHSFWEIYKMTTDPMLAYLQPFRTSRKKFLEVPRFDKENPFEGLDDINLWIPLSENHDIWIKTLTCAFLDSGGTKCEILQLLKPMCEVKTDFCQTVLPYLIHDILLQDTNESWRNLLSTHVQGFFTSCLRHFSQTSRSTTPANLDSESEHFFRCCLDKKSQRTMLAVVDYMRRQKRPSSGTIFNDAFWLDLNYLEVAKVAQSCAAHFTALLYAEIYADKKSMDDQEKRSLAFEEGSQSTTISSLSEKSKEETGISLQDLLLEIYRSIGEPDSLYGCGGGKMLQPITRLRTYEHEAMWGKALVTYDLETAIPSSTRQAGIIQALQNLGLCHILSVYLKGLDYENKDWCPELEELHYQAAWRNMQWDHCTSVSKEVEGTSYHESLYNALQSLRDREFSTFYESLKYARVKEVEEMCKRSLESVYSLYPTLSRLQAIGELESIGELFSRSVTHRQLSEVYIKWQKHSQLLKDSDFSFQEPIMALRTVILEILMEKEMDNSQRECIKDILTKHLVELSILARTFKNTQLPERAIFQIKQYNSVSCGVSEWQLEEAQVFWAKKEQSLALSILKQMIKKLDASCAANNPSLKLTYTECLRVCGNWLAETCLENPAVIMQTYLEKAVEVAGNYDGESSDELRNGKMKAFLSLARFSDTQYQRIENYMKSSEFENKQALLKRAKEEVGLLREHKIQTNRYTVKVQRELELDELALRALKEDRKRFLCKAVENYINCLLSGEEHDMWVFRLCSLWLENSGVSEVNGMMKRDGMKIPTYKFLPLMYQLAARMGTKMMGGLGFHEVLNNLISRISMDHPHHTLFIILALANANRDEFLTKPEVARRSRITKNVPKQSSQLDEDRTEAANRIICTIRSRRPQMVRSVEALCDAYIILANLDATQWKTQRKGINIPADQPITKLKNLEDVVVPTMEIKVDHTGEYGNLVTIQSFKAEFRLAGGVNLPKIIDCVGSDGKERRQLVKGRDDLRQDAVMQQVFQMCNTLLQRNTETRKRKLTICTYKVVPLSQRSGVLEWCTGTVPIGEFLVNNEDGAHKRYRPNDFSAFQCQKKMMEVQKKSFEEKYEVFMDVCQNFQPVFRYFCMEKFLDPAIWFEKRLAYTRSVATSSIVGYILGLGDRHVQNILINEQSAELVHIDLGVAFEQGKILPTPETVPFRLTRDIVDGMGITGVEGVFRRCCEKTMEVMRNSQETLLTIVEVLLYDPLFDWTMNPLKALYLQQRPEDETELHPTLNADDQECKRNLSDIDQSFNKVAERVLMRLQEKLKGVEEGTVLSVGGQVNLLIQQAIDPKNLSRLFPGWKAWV

B1: MBP-tagged human MRI (natural protein, UniProt Q9BWK5 1-157, looked up)
chain: METLQSETKTRVLPSWLTAQVATKNVAPMKAPKRMRMAAVPVAAARLPATRTVYCMNEAEIVDVALGILIESRKQEKACEQPALAGADNPEHSPPCSVSPHTSSGSSSEEEDSGKQALAPGLSPSQRPGGSSSACSRSPEEEEEEDVLKYVREIFFS
For B1, the binding result is listed as “binds”.
